Values quoted from earlier work, collected in publication PMC4554922.

Target: SAS-6 head domain (UniProt Q6UVJ0)

Kd: 80 µM
Substance: SAS-6 head domain (from UniProt Q6UVJ0)
